According to paper PMC9926490, “Structural Basis for Cyclosporin Isoform-Specific Inhibition of Cyclophilins from Toxoplasma gondii” (ACS Infectious Diseases, 2023):

Substrate: C[C@H](NC(=O)CCC(=O)O)C(=O)N[C@@H](C)C(=O)N1CCC[C@H]1C(=O)N[C@@H](Cc1ccccc1)C(=O)Nc1ccc([N+](=O)[O-])cc1
Assay: purified protein, by the assay type
Assay type: biochemical, Toxoplasma gondii
Conditions: other: substrate AAPF, 0 °C, pH 8.0
Protocol: A trans-isomer is formed by Cyp, which is selectively cleaved by chymotrypsin, producing 4-nitroaniline, a yellow-colored product that can be measured spectrophotometrically.
The assay was performed in 50 mM Hepes, pH 8, and 100 mM NaCl at 0 °C. […] Once the temperature reached 0 °C, chymotrypsin solution, dissolved in HCl 1 mM, was added at 1.8 mg mL^–1 to start the reaction.
Successively, Cyp was added in large excess to enhance the cis-to-trans isomerization. The cis population was estimated by the difference between the final and the initial absorbance.
For all of the experiments, the slope of the catalyzed reaction was corrected for the spontaneous thermal cis–trans isomerization in the presence of the only chymotrypsin.
All measurements were repeated as triplicate, and the error was calculated as the mean standard error of the three measurements. The error associated with the parameter kcat/Km was propagated in agreement with the following equation eq 1 [drawing 1]

B1: TgCyp18.4 (Toxoplasma gondii VEG) (protein)
chain: MSVTIKTNLGDLKAELYCQQAPKTCKNFLALCASDYYNGTRFHRNIKGFAIQGGDPTGTGKGGESIYGGLFEDEFVSSLKHDRRGILSMANQGKPNTNGSQFFITYCRQPHLNGVYSVFGRLIDGMDTLDKMEREPVGRKNRPENDIIIEQVIIHANPIAEMDQL
Km: 286 ± 39 µM | kcat: 2.8 ± 0.4 s⁻¹ | kcat/Km: 10000 ± 2000 M⁻¹ s⁻¹
